# Experimental data: the supplement of paper PMC12042874
# ± gives the uncertainty stated by the source.
# Experiment: amyloid nucleation score (Sup35N fusion, yeast selection) (log enrichment); library NNK1; higher = more nucleation; inactive = no reads after selection
# How it was run: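 Peptides of 20 random codons, each fused to Sup35N, were expressed in psi-negative yeast. Cells were induced with 100 μM copper sulfate for 24 hours and grown 7 days at 30°C on medium lacking adenine and uracil, and plasmid inserts before and after selection were Illumina-sequenced. Nucleation scores are DiMSum log enrichments of output over input reads, centred on the mode score of non-aggregating sequences, and sequences under 100 input reads were excluded.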
row,Substance,amyloid nucleation score
1,MVVWWRHKVLKGHWL,-0.189 ± 0.61
2,FIRVGLVCVLKFRSVGEAWL,-0.045 ± 0.9
3,LWYTALINTNACCVIRQDFR,1.04 ± 0.8
4,NCCCEAKTWRLIDCIITIVI,0.711 ± 0.13
5,WICMAP,3.42 ± 0.089
6,LGECFTGTDRLLEGLVSCES,0.776 ± 0.88
7,TLVGKVLADDSRGFINCR,0.924 ± 0.97
8,GAYCFSVCNHREL,-0.365 ± 1.1
9,GSMLLHLIILSILFFDRVES,0.148 ± 0.29
10,SLDVILVPMCTFCRGMAYCS,0.457 ± 1.1
11,RTWAEWCLVLVSGFGSGAML,0.086 ± 0.54
12,YTCCWTVG,4.18 ± 0.08
13,RCDNLF,0.037 ± 0.39
14,DFMALI,-0.013 ± 0.25
15,SVLSMLIWYKPHREGSLN,0.812 ± 1.1
16,ILFGTAHCIIG,1.52 ± 0.13
17,NSCICLTRD,-1.27 ± 1.7
18,GCALPQYKILWSFRFYWVGN,inactive
19,AGVNWASHWHMDHMSGFVEW,-0.684 ± 0.3
20,DIMKSSKAHELVQSLPIEKR,0.248 ± 0.64
21,YVWVGADDFFYRGYVFSRLV,-0.212 ± 1.4
22,LKCLLKHGFTRNG,-2.08 ± 2.7
23,TFLSTLIALISRFSRSESWM,1.24 ± 0.93
24,RWSVSINWTRSEEHDFRNCV,1.37 ± 0.43
25,YFSQPMLLRSSGRAVNSRMR,-1.66 ± 2.4

row,Substance,amyloid nucleation score
1,RDVTCRLYLMLWS,-0.641 ± 1.5
2,SIVMGSVMTFGFDIFL,4.47 ± 0.066
3,VIGDLSYRSYI,0.44 ± 0.4
4,QKWVFVEVCSCRVSLTNLVL,0.233 ± 0.35
5,ITYKSFYHIQCFSGTSCKRF,3.1 ± 0.11
6,IVGMASRCRGFR,1.11 ± 0.71
7,YSLEFSSFMLFLTCLVSYNY,-0.457 ± 0.4
8,LTEDLNMPSWCKP,0.087 ± 0.7
9,SGWYDP,-0.523 ± 0.7
10,LFYFTRLFINRYMNM,-0.316 ± 0.5
11,VIDAIQPRKYGFV,-0.462 ± 0.58
12,IICICLVIISFRFCFSIKFM,-2.57 ± 2.7
13,MNMSKRFLRKLCERSRMPNR,0.21 ± 0.61
14,EKNYRICGFMGLLLFRIE,inactive
15,MHEGKRLITGIDWWYVGVCW,0.094 ± 0.9
16,SEGCMSGRLCDRGVASFVWL,0.7 ± 0.97
17,HNHADATQKKCGVQ,-0.112 ± 0.28
18,SADSGSQSEEQSKVMRMVYG,-1.64 ± 0.83
19,FWPCFSWYC,2.16 ± 0.15
20,APLEFWRGTVVAWLWYLCPF,0.303 ± 0.41
21,RISRSISVDALMIRAGYLPN,inactive
22,KITHLFFKSSYVIVKLLYVI,0.082 ± 0.51
23,VKSWKLERRMRVAMLDTLVI,0.367 ± 1.2
24,SLPLTVVLYCHRYG,5.05 ± 0.064
25,KIKVPRIVLVCKCILFNNLW,1.51 ± 0.34

row,Substance,amyloid nucleation score
1,TRVYIYRTGIWFYLTSNSFT,0.577 ± 0.43
2,GSSMLHSFSFGGPALVCCVF,7.167 ± 0.055
3,RWGRESRLRV,-0.122 ± 0.29
4,LRVCNLFCL,7.912 ± 0.046
5,GLCVMSYTVDSLLCKGIFR,inactive
6,EEDII,1.96 ± 0.26
7,VKLSMLWLMARLWGRLTCSG,-0.293 ± 0.47
8,YGTRVFIGSIRYFRTEEAKI,0.35 ± 0.72
9,SRAINVSVMWVRFS,2.81 ± 0.13
10,NANINFSNTMQADVL,0.116 ± 0.31
11,LDIVCLPKFVVWTDTV,-0.301 ± 0.56
12,VMFRLTGELGDMKCGVLSDA,1.47 ± 0.38
13,LMHASHFFVGKMFLL,0.266 ± 0.28
14,PYTWTTTVPSAPKGLF,0.096 ± 0.48
15,LLGVGCNRIDWLNGAKN,2.04 ± 0.49
16,FDSVHLRRSR,0.701 ± 0.43
17,WNDSYRINSTGCHDCLYRLF,-0.37 ± 0.3
18,FDNVVGYNGFMDGPGYLLYT,-0.16 ± 0.25
19,IICFVVISWTRFLMSQKCFC,-0.143 ± 0.35
20,TISILCQYQVMGTIFIYVVQ,1.66 ± 0.13
21,DSELRMVISLYFCWLWSEWS,-0.623 ± 0.6
22,TSVNMVIYILLVNFMKFLVG,1.37 ± 0.45
23,VNPNGGEDNVLGCPIRSWQW,-0.031 ± 1.2
24,RGSQTLGCVSGLHHHRFAIL,-1.14 ± 0.63
25,LKSTEWSGRGFQ,0.862 ± 0.19

row,Substance,amyloid nucleation score
1,GFSSVPEGDSINPR,-0.09 ± 0.54
2,DTVVGSAFCQGMYLSESVML,1.56 ± 0.76
3,ISTRQMFVYLRVHCFIDAVE,0.043 ± 0.48
4,YGGIVNDVFAGLQNIMGVAL,0.334 ± 0.54
5,DRRSIAGFHCCWNSKVMVSP,-0.83 ± 0.88
6,VMGLT,-0.242 ± 1.1
7,TSVSNMFENPKNLSLVPTVG,1.94 ± 0.5
8,IFCAPLTTSQIALRVYNRRL,0.727 ± 0.88
9,ANENLMNRYITNKRSCWCRW,-0.728 ± 0.48
10,KHICTAFRSVEFAEGIR,0.658 ± 0.46
11,QAVSRHNGSSVVTVRFKLSP,1.49 ± 0.52
12,MGVYTCR,inactive
13,IYLMIGHWESNNKLNICVLP,3.7 ± 0.11
14,HQIPCPFRSRLARPGHLLEI,-0.612 ± 1
15,NKGKIESMCSSAH,4.7 ± 0.099
16,ICGNSSTEASGL,0.039 ± 0.56
17,AGAVCWACDR,-1.4 ± 0.77
18,SITVPGFVAQISGVPIREYC,0.348 ± 0.79
19,RCSSGSRICAMRLLGYSSYI,-0.066 ± 0.75
20,GVHSTEKNEWTQTFQSGR,-0.103 ± 0.98
21,SLCILDEQVDHFVAEGVGID,0.876 ± 0.42
22,SSVFKRMWPLLFVIPRQMH,0.02 ± 0.43
23,AWGCMMAYFTGRLISEVSNS,-0.529 ± 0.36
24,TYWYSVRNVAQLCPVEGYQS,-0.102 ± 0.7
25,LYFSTYVFLASTSGHLSRFD,-1.36 ± 2.1

row,Substance,amyloid nucleation score
1,YFRYWNSLIGIKDSD,1.17 ± 0.39
2,IVENARWKVAAEPRNRRSSV,0.273 ± 0.58
3,TVNCFDYSVSGVSSNRV,0.882 ± 0.66
4,MLRTSARSQRGNRGLAKMGF,-1.87 ± 2.7
5,DCMFYVDRTGRSIGVVSIVE,-0.021 ± 0.28
6,VSWHGSVLHRACMKWVCMCG,0.51 ± 0.79
7,IFSCGIGHWV,0.462 ± 0.49
8,SSCVRN,-0.153 ± 0.57
9,GRYTYDTMFTGWGASDELHI,1.14 ± 0.97
10,RSSSHYRSDERPIDFVNEQE,-1.16 ± 0.77
11,NWSRPSSNLGGGPSSAVREG,0.764 ± 0.52
12,FSCMRWM,0.73 ± 0.43
13,SDYMLNFCYSGLIVRMVFAA,-0.508 ± 0.98
14,RMLQHLVFLAGLNDVFAKGF,1.43 ± 0.15
15,LYVEMEYSFDYYATKDRHQT,-0.842 ± 1.7
16,TLLNDIFLLCCDSTSNDLMC,1.56 ± 0.43
17,WLQTTYLGLFMVFTGFEGY,-0.586 ± 0.55
18,VVTRYL,0.403 ± 0.36
19,IPRYVYIGLTPKAVLKQNLA,-1.04 ± 0.84
20,LSIEQTLQEAGILDYPSRIT,-0.155 ± 0.35
21,QDKAVIANNRWTKMCGRLDC,1 ± 0.59
22,YKHKTFIPRFTYNETVVYYV,4.85 ± 0.087
23,GRLGITSMMPLGCVINWPRG,3.02 ± 0.13
24,SLMVSRGDTCG,-0.181 ± 0.35
25,SVRVI,0.105 ± 0.73

row,Substance,amyloid nucleation score
1,PYVEIAWS,-1.19 ± 0.85
2,LFFCGLGERG,inactive
3,MMDNLVYQRYTCTF,0.448 ± 0.79
4,CHEQHSASREYVDREYGKYS,inactive
5,VFASVRLSCMEGGTLVG,0.241 ± 0.33
6,GCIGAQRLNCLWSTRRYLVY,5.42 ± 0.06
7,WTRSFRAFGSSVYWEGRGNH,1.22 ± 0.26
8,FSTIGCKSMAVNCSFWYWSR,6.196 ± 0.047
9,FLGWICICPGQYRSAGPTAL,-0.487 ± 0.43
10,SVYRSVRGNRCWGLKIIMPG,-0.101 ± 1.1
11,SASLS,0.396 ± 0.71
12,GSWGVRVFHFFARSRP,0.032 ± 0.79
13,RIKRILFFYSVRIWDLSDG,2.52 ± 0.12
14,IEISDMSWFRPVMFNDAKEL,1.44 ± 0.53
15,KVDLLA,-0.13 ± 0.56
16,VYWRREVSI,0.312 ± 1.2
17,EHWSRSVGSHASVWFVAPAG,inactive
18,CSREYDVVGLA,0.401 ± 0.28
19,HGPHYLLITGRGTRDNQSRD,-0.721 ± 0.65
20,WGQFYVLTSVLHYINQWH,-2.58 ± 2.7
21,TMCEYSHFLLRAMNNLMENV,-1.57 ± 2.7
22,MLKQMSSLGREEIYVF,-0.314 ± 0.99
23,NNLRLKGKKRSYRCSVIDLT,-0.256 ± 0.39
24,NVYLMKLDWTIKMWWA,0.638 ± 0.69
25,TARFINVDVLSPW,1.32 ± 0.28

row,Substance,amyloid nucleation score
1,YYGNTRWLDYMPLL,inactive
2,LLVSFTENNRPDLILQSHLM,-1.2 ± 1.2
3,DQSILRLYAWALRPGELELR,3.15 ± 0.14
4,DVRLRRYEGGQSSVTSHHDN,0.028 ± 0.53
5,IALNRMFSISLVFYDKGFWY,inactive
6,SPESRRQWCL,inactive
7,GVCVNVKLLNWFKSRGTSSR,1.91 ± 0.38
8,NCERVTDYELIRGSSILKVV,0.311 ± 0.73
9,IYYMYYLYHYWMILRENDFM,0.151 ± 0.21
10,NFRNSLRSV,1.24 ± 0.59
11,WFYTVARPNVSSSLESRTEP,0.137 ± 0.22
12,RLFDVMTITYTRSLSSPSCD,0.405 ± 1.2
13,CILVARKAVLNCGGWKRSVR,6.27 ± 0.067
14,LGCVVHDCYKVVDGIMSYML,1.69 ± 0.41
15,LIKSMDFLGRM,0.117 ± 0.69
16,VLVDGSRSWGG,0.952 ± 0.52
17,RLYFRELSWSGLCMFELVRI,-0.117 ± 0.4
18,VLYAP,-0.33 ± 1.7
19,WTRKS,-0.067 ± 0.35
20,YLSRGNY,-0.245 ± 0.79
21,LSAVPSNGHNNGGYVKSDVS,-0.766 ± 1.4
22,SSIVKYSCLVVFFQRNHVIP,inactive
